Measurements: paper PMC2794542

Molecular target: full length LRRK2, FLAG-tagged and V5-tagged copies co-expressed (human) (UniProt Q5S007)
Test: co-IP; 293T cells co-transfected with FLAG- and V5-LRRK2; gel filtration fractions 20-23 (α-complex, ~600 kDa) pooled, immunoprecipitated with anti-FLAG, blotted with anti-FLAG and anti-V5, densitometry
Conditions: remark: other sources report otherwise

For “full length LRRK2, FLAG-tagged and V5-tagged copies co-expressed, Q5S007 1-2527”, the ratio of FLAG-LRRK2 to V5-LRRK2 in the anti-FLAG IP was 1.87 and the stoichiometry N was 2.
